Reference: IntAct's records for PubMed 22265973

B1: Synaptotagmin-2 (Rattus norvegicus (Rat)), P29101 (parent)
chain: MRNIFKRNQEPIVAPATTTATMPLAPAAPADNSTESTGTGESQEDMFAKLKDKFFNEINKIPLPPWALIAMAVVAGLLLLTCCFCICKKCCCKKKKNKKEKGKGMKNAMNMKDMKGGQDDDDAETGLTEGEGEGEEEKEPENLGKLQFSLDYDFQANQLTVGVLQAAELPALDMGGTSDPYVKVFLLPDKKKKYETKVHRKTLNPAFNETFTFKVPYQELGGKTLVMAIYDFDRFSKHDIIGEVKVPMNTVDLGQPIEEWRDLQGGEKEEPEKLGDICTSLRYVPTAGKLTVCILEAKNLKKMDVGGLSDPYVKIHLMQNGKRLKKKKTTVKKKTLNPYFNESFSFEIPFEQIQKVQVVVTVLDYDKLGKNEAIGKIFVGSNATGTELRHWSDMLANPRRPIAQWHSLKPEEEVDALLGKNK

Variants of: B1
Details: with bxb_clobo botB

Variant | effect of a mutation on the interaction
F54L | disrupting interaction

Variants of: B1
Details: with bxb_clobo botB
Remark: another data set of the same source

Variant | effect of a mutation on the interaction
F54A | disrupting interaction
